{"source": "patent US5597798A", "about": "“Taxol and epidermal growth factor used to enhance treatment of ovarian cancer” (The Regents of the University of California, priority 1994, dated 1997)", "key": {"[1]": {"set-up": "species or system mice", "conditions": "mouse, in vivo", "protocol": "For nephrotoxicity studies, 72 h after treatment, mice were anesthetized and 1.5 ml of blood was sampled by cardiac puncture. Plasma creatinine and blood urea nitrogen (BUN) levels were used to measure toxicity and were determined by an enzymatic method previously described (Kulpman et al., J. Clin. Chem. Clin. Biochem. 28(11): 835 (1990))."}, "[2]": {"system": "2008 human ovarian carcinoma cells", "assay": "Colony forming assay, effect of EGF on sensitivity to cytotoxic agents", "type": "cell-based", "conditions": "for survival, % of control cells treated with DDP alone: DDP and EGF together"}, "COLO 316 cells [3]": {"system": "COLO 316 cells", "assay": "Morphologic changes induced by EGF (light microscopy of colonies)", "type": "cell-based, human", "conditions": "10 nM EGF for 2 hs, inspected after 10 days", "text": "(§1) The colonies formed by the COLO 316 cells appeared somewhat denser."}, "2008/C13* cells [4]": {"system": "2008/C13* cells", "assay": "Morphologic changes induced by EGF (light microscopy of colonies)", "type": "cell-based, human", "conditions": "2 h EGF exposure", "text": "as §1"}, "2008 cells [5]": {"system": "2008 cells", "assay": "Morphologic changes induced by EGF (light microscopy of colonies)", "type": "cell-based, human", "conditions": "10 nM EGF for 2 hs, inspected after 10 days", "text": "as §1"}, "2008 tumor xenografts": {"system": "2008 tumor xenografts", "assay": "Effect of EGF on cisplatin toxicity against tumor xenografts in athymic mice", "type": "in vivo, athymic mice (nu/nu)", "protocol": "For these studies, 3 to 4 week old female athymic mice (nu/nu) from BALB/c origin were used which were supplied by Harlan Sprague Dawley, Inc. (Indianapolis, Ind.). The mice were kept in a laminar flow hood at 28° C. and fed standard mouse diet and water ad libitum.\nTumor xenografts were established from 2008 cells by harvesting confluent cell cultures by trypsinization and resuspending the cells in RPMI 1640 medium at 2.5×10^7 cells per ml. From this suspension, 0.2 ml aliquots containing 5×10^6 cells were injected s.c. on each shoulder of the athymic mice. In each mouse, two tumors were followed and tumor volumes were determined using the formula (length×width^2)/2 (Giavazzi et al., Cancer Res. 46:1928 (1986) and Tomayko & Reynolds Cancer Chemother. Pharmacol. 24:148 (1989)).\nIn all groups, treatment was administered 24 hours after the inoculation with tumor cells.\nTumor growth of each tumor in each animal was expressed as plot of in(tumor volume) as a function of time. The regression line of the in(tumor volume) versus time plot was calculated by using the method of least squares. The intercept and slope were obtained and used to calculate the time each tumor required to reach an arbitrarily defined volume of 1 ml. This volume was chosen because most tumors in all treatment groups reached this endpoint. For comparisons between two groups the unpaired Student's T-test was used. […]"}, "COLO 316 cells [6]": {"system": "COLO 316 cells", "assay": "Growth rate under EGF exposure", "type": "cell-based, human", "conditions": "2 h or continuous exposure to 10 nM EGF", "text": "(§2) During the first 5 days after cell seeding, cell growth was exponential. The doubling times of the 2008, 2008/C13*, and COLO 316 cells were 27.9, 28.2, and 29.2 hs, respectively."}, "2008/C13* cells [7]": {"system": "2008/C13* cells", "assay": "Growth rate under EGF exposure", "type": "cell-based, human", "conditions": "2 h or continuous exposure to 10 nM EGF", "text": "as §2"}, "2008 cells [8]": {"system": "2008 cells", "assay": "Growth rate under EGF exposure", "type": "cell-based, human", "conditions": "2 h or continuous exposure to 10 nM EGF", "text": "as §2"}, "[9]": {"conditions": "2 h exposure to EGF (1 h before and 1 h concurrent with DDP)"}, "[10]": {"conditions": "delay between 1 h EGF pre-treatment and 1 h DDP exposure"}}, "data": [{"molecule": "EGF: Epidermal Growth Factor; murine EGF (Sigma) in clonogenic assays, 125I-labelled human recombinant EGF in binding assays (protein, UniProt P01133 23-1207, looked up, Pro-epidermal growth factor 125I-labelled; murine EGF also used) Pro-epidermal growth factor: PQHWSCPEGTLAGNGNSTCVGPAPFLIFSHGNSIFRIDTEGTNYEQLVVDAGVSVIMDFHYNEKRIYWVDLERQLLQRVFLNGSRQERVCNIEKNVSGMAINWINEEVIWSNQQEGIITVTDMKGNNSHILLSALKYPANVAVDPVERFIFWSSEVAGSLYRADLDGVGVKALLETSEKITAVSLDVLDKRLFWIQYNREGSNSLICSCDYDGGSVHISKHPTQHNLFAMSLFGDRIFYSTWKMKTIWIANKHTGKDMVRINLHSSFVPLGELKVVHPLAQPKAEDDTWEPEQKLCKLRKGNCSSTVCGQDLQSHLCMCAEGYALSRDRKYCEDVNECAFWNHGCTLGCKNTPGSYYCTCPVGFVLLPDGKRCHQLVSCPRNVSECSHDCVLTSEGPLCFCPEGSVLERDGKTCSGCSSPDNGGCSQLCVPLSPVSWECDCFPGYDLQLDEKSCAASGPQPFLLFANSQDIRHMHFDGTDYGTLLSQQMGMVYALDHDPVENKIYFAHTALKWIERANMDGSQRERLIEEGVDVPEGLAVDWIGRRFYWTDRGKSLIGRSDLNGKRSKIITKENISQPRGIAVHPMAKRLFWTDTGINPRIESSSLQGLGRLVIASSDLIWPSGITIDFLTDKLYWCDAKQSVIEMANLDGSKRRRLTQNDVGHPFAVAVFEDYVWFSDWAMPSVMRVNKRTGKDRVRLQGSMLKPSSLVVVHPLAKPGADPCLYQNGGCEHICKKRLGTAWCSCREGFMKASDGKTCLALDGHQLLAGGEVDLKNQVTPLDILSKTRVSEDNITESQHMLVAEIMVSDQDDCAPVGCSMYARCISEGEDATCQCLKGFAGDGKLCSDIDECEMGVPVCPPASSKCINTEGGYVCRCSEGYQGDGIHCLDIDECQLGEHSCGENASCTNTEGGYTCMCAGRLSEPGLICPDSTPPPHLREDDHHYSVRNSDSECPLSHDGYCLHDGVCMYIEALDKYACNCVVGYIGERCQYRDLKWWELRHAGHGQQQKVIVVAVCVVVLVMLLLLSLWGAHYYRTQKLLSKNPKNPYEESSRDVRSRRPADTEDGMSSCPQPWFVVIKEHQDLKNGGQPVAGEDGQAADGSMQPTSWRQEPQLCGMGTEQGCWIPVSSDKGSCPQVMERSFHMPSYGTQTLEGGVEKPHSLLSANPLWQQRALDPPHQMELTQ", "values": [{"measurement": "serum creatinine or BUN", "setting": "[1]", "result": "Neither treatment with EGF alone, cisplatin alone, or EGF plus cisplatin resulted in statistically significant increases in serum creatinine or BUN"}, {"measurement": "EGF concentration of maximal enhancement of DDP sensitivity", "setting": "[2]; [9]", "result": "about 10 nM"}, {"measurement": "lowest EGF concentration that enhanced sensitivity to DDP", "setting": "[2]; [9]", "result": 0.4, "unit": "nM"}, {"measurement": "survival, % of control cells treated with DDP alone", "setting": "[2]; no cyclohexamide", "result": "31±10", "unit": "%"}, {"measurement": "survival, % of control cells treated with DDP alone", "setting": "[2]; pretreatment with cyclohexamide inhibiting protein synthesis by 90%", "result": "47±8", "unit": "%"}, {"measurement": "effect of further increase in EGF concentration", "setting": "[2]; EGF up to 100 nM", "result": "no additional change in sensitivity to DDP"}, {"measurement": "loss of EGF mediated increase in sensitivity to DDP", "setting": "[2]; [10]", "result": "largely disappeared by 24 hs"}, {"measurement": "persistence of EGF mediated increase in sensitivity to DDP", "setting": "[2]; [10]", "result": "at least 6 hs"}, {"measurement": "morphologic change of colonies", "setting": "COLO 316 cells [3]", "result": "marked scattering of the colonies and the formation of prominent dendritic processes"}, {"measurement": "morphologic response", "setting": "2008/C13* cells [4]", "result": "showed no morphologic response"}, {"measurement": "morphologic change of colonies", "setting": "2008 cells [5]", "result": "marked scattering of the colonies and the formation of prominent dendritic processes"}, {"measurement": "time required for tumors to reach a volume of 1 ml (in words)", "setting": "2008 tumor xenografts; 1 mg/kg EGF s.c. alone or with 15 mg/kg cisplatin i.p.", "result": "no effect on the time required for tumors to reach a volume of 1 ml"}, {"measurement": "final tumor volume", "setting": "2008 tumor xenografts; 1 mg/kg EGF s.c. and/or 15 mg/kg cisplatin i.p., 24 hours after inoculation", "result": "no effect on the final tumor volume"}, {"measurement": "effect on growth rate", "setting": "COLO 316 cells [6]", "result": "Neither a 2 h nor a continuous exposure to 10 nM EGF had any demonstrable impact on the growth rate"}, {"measurement": "effect on growth rate", "setting": "2008/C13* cells [7]", "result": "Neither a 2 h nor a continuous exposure to 10 nM EGF had any demonstrable impact on the growth rate"}, {"measurement": "effect on growth rate", "setting": "2008 cells [8]", "result": "Neither a 2 h nor a continuous exposure to 10 nM EGF had any demonstrable impact on the growth rate"}]}]}
